A short description of this data set: pulse-chase IP of wild type, degradation. Particulars: glycan changed form; control: untreated.

B1: human tyrosinase: kifunensine (protein)
parent chain: MLLAVLYCLLWSFQTSAGHFPRACVSSKNLMEKECCPPWSGDRSPCGQLSGRGSCQNILLSNAPLGPQFPFTGVDDRESWPSVFYNRTCQCSGNFMGFNCGNCKFGFWGPNCTERRLLVRRNIFDLSAPEKDKFFAYLTLAKHTISSDYVIPIGTYGQMKNGSTPMFNDINIYDLFVWMHYYVSMDALLGGSEIWRDIDFAHEAPAFLPWHRLFLLRWEQEIQKLTGDENFTIPYWDWRDAEKCDICTDEYMGGQHPTNPNLLSPASFFSSWQIVCSRLEEYNSHQSLCNGTPEGPLRRNPGNHDKSRTPRLPSSADVEFCLSLTQYESGSMDKAANFSFRNTLEGFASPLTGIADASQSSMHNALHIYMNGTMSQVQGSANDPIFLLHHAFVDSIFEQWLRRHRPLQEVYPEANAPIGHNRESYMVPFIPLYRNGDFFISSKDLGYDYSYLQDSDPDSFQDYIKSYLEQASRIWSWLLGAAMVGAVLTALLAGLVSLLCRHKRKQLPEEKQPLLMEKEDYHSLYQSHL
Turning to B1, the degradation_or_half_life entry is reported as “increases”.

The values above are taken from paper PMC3097235.
